From US7582460B2 (Wacker Chemie AG, priority 2003, dated 2009) come the findings set out here.

Test [1] relates to 3-phosphoglycerate dehydrogenase (PGD). Kind of test: PGD enzyme activity in crude extracts (McKitrick and Pizer test). In kind it is biochemical, Escherichia coli. As to conditions: crude extract of strain expressing plasmid-encoded serA allele; backward reaction, NADH oxidation at 340 nm. An excerpt: (§1) For example, the PGD activity can be determined in analogy with the method described by McKitrick and Pizer (1980, J. Bacteriol. 141:235-245). The backward reaction is used to measure the enzyme activity in an assay sample which contains phosphohydroxypyruvate and NADH/H^+. The reaction is started by adding enzyme and is monitored in a spectrophotometer by way of the decrease in extinction at 340 nm which is caused by oxidation of the NADH/H^+.
(§2) At an optical density of 1.0, serA expression was in each case induced by adding 0.4 mM […] and the culture was incubated for a further 3 hours. The cells were subsequently harvested by centrifugation, washed and resuspended in 2 ml of buffer (100 mM K-phosphate, pH 7.0; 10 mM MgCl2; 1 mM dithiothreitol). The cells were disrupted using a French press (Spectronic Instruments, Inc. Rochester, N.Y., USA) at a pressure of 18 000 psi. The crude extracts were clarified by centrifugation at 30 000 g and PGD activity was determined using the McKitrick and Pizer test (1980, J. Bacteriol. 141:235-245).

Test [2] concerns the target 3-phosphoglycerate dehydrogenase (PGD). Kind of test: Inhibition of PGD activity by L-serine, inhibitor constant Ki. In kind it is biochemical, Escherichia coli. As to conditions: Ki = inhibitor concentration at which activity is 50% of activity without inhibitor.
Source text: as §1, §2

B1: serA11: E. coli PGD variant with replacement T372Y (protein, UniProt P0A9T0 2-410, looked up, variant T372Y)
D-3-phosphoglycerate …: AKVSLEKDKIKFLLVEGVHQKALESLRAAGYTNIEFHKGALDDEQLKESIRDAHFIGLRSRTHLTEDVINAAEKLVAIGCFCIGTNQVDLDAAAKRGIPVFNAPFSNTRSVAELVIGELLLLLRGVPEANAKAHRGVWNKLAAGSFEARGKKLGIIGYGHIGTQLGILAESLGMYVYFYDIENKLPLGNATQVQHLSDLLNMSDVVSLHVPENPSTKNMMGAKEISLMKPGSLLINASRGTVVDIPALCDALASKHLAGAAIDVFPTEPATNSDPFTSPLCEFDNVLLTPHIGGSTQEAQENIGLEVAGKLIKYSDNGSTLSAVNFPEVSLPLHGGRRLMHIHENRPGVLTALNKIFAEQGVNIAAQYLQYSAQMGYVVIDIEADEDVAEKALQAMKAIPGTIRARLLY
The Ki is the equilibrium dissociation constant of an inhibitor or competing ligand from its target. A low value points to a stronger hold on the target. B1 displayed an Activity in test [1] of 0.05 units/mg. Besides, the inhibitory constant (Ki) in test [2] was 35 mM.

B2: serA219: E. coli PGD variant with replacement T372G (protein, UniProt P0A9T0 2-410, looked up, variant T372G)
D-3-phosphoglycerate …: AKVSLEKDKIKFLLVEGVHQKALESLRAAGYTNIEFHKGALDDEQLKESIRDAHFIGLRSRTHLTEDVINAAEKLVAIGCFCIGTNQVDLDAAAKRGIPVFNAPFSNTRSVAELVIGELLLLLRGVPEANAKAHRGVWNKLAAGSFEARGKKLGIIGYGHIGTQLGILAESLGMYVYFYDIENKLPLGNATQVQHLSDLLNMSDVVSLHVPENPSTKNMMGAKEISLMKPGSLLINASRGTVVDIPALCDALASKHLAGAAIDVFPTEPATNSDPFTSPLCEFDNVLLTPHIGGSTQEAQENIGLEVAGKLIKYSDNGSTLSAVNFPEVSLPLHGGRRLMHIHENRPGVLTALNKIFAEQGVNIAAQYLQGSAQMGYVVIDIEADEDVAEKALQAMKAIPGTIRARLLY
Regarding B2, in test [1], the Activity stood at 0.05 units/mg. The same molecule gave an inhibition constant Ki in test [2] of 8 mM.
